Reference: patent US20140056903A1 (Regeneron, published 2014)
Substitutions are numbered along the chain they refer to. Numbers in names are those of the source.

T1: human GFRα3 expressed with a C-terminal mFc tag (human)
T1 construct: also called hGFRα3-mFc
T1 chain: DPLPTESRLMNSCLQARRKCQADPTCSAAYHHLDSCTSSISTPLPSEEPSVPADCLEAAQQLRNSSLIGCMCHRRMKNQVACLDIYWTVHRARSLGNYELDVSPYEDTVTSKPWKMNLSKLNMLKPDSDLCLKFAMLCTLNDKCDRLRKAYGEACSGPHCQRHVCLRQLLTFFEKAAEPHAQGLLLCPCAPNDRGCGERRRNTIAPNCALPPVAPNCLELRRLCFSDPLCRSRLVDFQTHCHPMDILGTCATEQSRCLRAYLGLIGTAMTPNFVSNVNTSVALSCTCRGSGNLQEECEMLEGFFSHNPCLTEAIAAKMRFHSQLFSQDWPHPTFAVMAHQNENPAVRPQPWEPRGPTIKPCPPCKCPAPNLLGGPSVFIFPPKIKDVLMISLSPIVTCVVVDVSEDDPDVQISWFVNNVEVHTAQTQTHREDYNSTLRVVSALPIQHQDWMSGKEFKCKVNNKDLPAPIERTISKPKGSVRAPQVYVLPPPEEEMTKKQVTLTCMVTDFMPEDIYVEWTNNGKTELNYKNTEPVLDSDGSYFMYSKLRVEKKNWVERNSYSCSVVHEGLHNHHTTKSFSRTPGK

B1: H4H2355S (antibody, human IgG4, V domains shown)
VH: EVQLVESGGGLVQPGGSLRLSCAASGFTFSSYAMSWVRQVPGKGLEWVSAISGSGDNTYNAESVKGRFTISRDNSKNMLYLQMNSLRAEDTAVYYCAKTKFSSSLLFDYWGQGTLVTVSS
VL: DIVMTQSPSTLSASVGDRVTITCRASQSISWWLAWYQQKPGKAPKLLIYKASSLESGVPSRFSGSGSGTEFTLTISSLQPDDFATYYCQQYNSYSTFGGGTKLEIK
notes: human IgG4 Fc (H4H)
B2: H4H2236N3 (antibody, human IgG4, V domains shown)
VH: EVQLLESGGNLVQPGGSLRLSCAASGFTFSSYAMTWVRQAPGKGLEWVSTISGSGTSTYYADSVKGRFTISRDNSRDTVFLQMNSLRAEDTAVYYCSKPSALRFLHWLAMDVWGQGTLVTVSS
VL: DIQMTQSPSSLSAFVGDRVTITCRASQDIRNYLDWFQQKPGKAPKSLIYAASNLQSGVPSRFGGSGSGTDFTLTINSLQPEDFVTYYCQQYNSYPPTFGGGTKVEIK
notes: human IgG4 Fc (H4H)
B3: H4H2291S (antibody, human IgG4, V domains shown)
VH: EVQLVESGGGLVQPGESLRLSCAASGFTFSNYAMSWVRQAPGKGLEWVSVISGSGGSTYYADSVKGRFTMSRDNSKNTLYLQMNSLRAEDTAVYYCAKPPSRAARYFNYGMDVWGQGTTVTVSS
VL: AIRMTQSPSSVSASVGDRVTITCRASQGISSWLAWYQQKPGKAPKLLIYAASSLQSGVPSRFSGSGSGTDFTLTISSLQPEDFATYYCQQANSFPFTFGGGTKVEIK
notes: human IgG4 Fc (H4H)
B4: H4H2295S (antibody, human IgG4, V domains shown)
VH: EVQLVESGGGLVQAGGSLRLSCVASGFTFSSYAMSWVRQAPGKGLEWVSAISGSGGSTYSADSVKGRFTISRDNSKNTLYLQMNSLRAEDTAVYYCTKPSSYSSSNFYYGMDVWGQGTTVTVSS
VL: B3 VL with A1D, R3Q, A50T, G68R, A91T, F94L, F96L, G100P
notes: human IgG4 Fc (H4H)
B5: H4H2296S (antibody, human IgG4, V domains shown)
VH: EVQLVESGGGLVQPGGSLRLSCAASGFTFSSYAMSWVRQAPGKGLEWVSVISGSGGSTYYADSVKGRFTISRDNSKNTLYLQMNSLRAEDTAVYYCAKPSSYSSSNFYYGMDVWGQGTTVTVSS
VL: B3 VL with A1D, R3V, Q55R, S76T, Q90H, A91T, G100P
notes: human IgG4 Fc (H4H)
B6: H4H2292S (antibody, human IgG4, V domains shown)
VH: EVQLVESGGGVVQPGRSLRLSCAASGFTFSSYGMHWVRQAPGKGLEWVSFIWYDGSNKYYADSVKGRFTISRDNSKNTLYLQMNSLTAEDTAVYYCARRGILTGTTAFDIWGQGTMVTVSS
VL: DIQMTQSPSSLSASVGDRVTITCRASQSISSYLNWYQQKPGKAPKLLIYAASSLQSGVPSRFSGSGSGTDFTLTIRSLIPEDFATYYCQQTYNTPFTFGPGTKVEIK
notes: human IgG4 Fc (H4H)

The binders below were run against T2, human GFRα3 expressed with a C-terminal myc-myc-hexahistidine tag (human, UniProt O60609 32-374, biotinylated (sites not given) in ELISA format 2 and in the Octet cross-competition; not in SPR) (assay: blocking ELISA 2, biotin-hGFRα3-mmH to coated hARTEMIN-mmH + hRET-10His; IC50 cell 'enhancer').
T2 construct: also called hGFRα3-mmh; hGFRα3-mmH
T2 sequence (O60609 other isoform, or with tags, fused parts or gaps limits assumed): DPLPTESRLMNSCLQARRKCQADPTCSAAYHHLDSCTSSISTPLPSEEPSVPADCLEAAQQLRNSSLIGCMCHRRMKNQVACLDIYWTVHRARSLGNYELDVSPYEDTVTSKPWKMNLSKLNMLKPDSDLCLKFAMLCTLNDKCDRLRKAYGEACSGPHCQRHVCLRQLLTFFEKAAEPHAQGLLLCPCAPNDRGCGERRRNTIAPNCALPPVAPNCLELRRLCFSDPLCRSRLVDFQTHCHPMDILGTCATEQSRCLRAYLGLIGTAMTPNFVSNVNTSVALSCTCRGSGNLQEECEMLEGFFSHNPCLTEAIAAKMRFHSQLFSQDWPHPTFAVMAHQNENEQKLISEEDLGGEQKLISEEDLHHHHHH
Description: The equilibrated sample solutions were then transferred to the hARTEMIN-mmH-coated plate. […] Absorbance was recorded at 450 nm on a Victor X5 plate reader (Perkin Elmer) to determine the amount of free hGFRα3-hFc in the pre-equilibrated hGFRα3-hFc-antibody solutions that was able to bind to the plate coated with hARTEMIN-mmH. IC₅₀ values, defined as the concentration of antibody required to reduce the signal from a constant concentration of hGFRα3-hFc by 50%, were calculated from the data using Prism software from GraphPad. The absorbance measured at the constant amount of 120 pM hGFRα3-hFc in the absence of anti-GFRα3 antibody is defined as 0% blocking and the absorbance with no added hGFRα3-hFc is defined as 100% blocking. The observed absorbance in the wells containing the highest antibody concentration was used to calculate the maximum blocking percent shown in the table.
In the second ELISA format, the plates, samples and data were processed similarly as for the first format except both hARTEMIN-mmH and human RET with a C-terminal 10 histidine tag (hRET-10His; R&D Systems, #1168-CR/CF) were coated for the blocking ELISA experiment. The 96-well microtiter plates were coated with a mixture of 1.2 ug/ml hARTEMIN-mmH and 6.9 ug/ml hRET-10His proteins in PBS overnight at 4° C. and then blocked with a solution of 0.5% (w/v) BSA. A constant amount of biotinylated human GFRα3 with a C-terminal myc-myc-hexahistidine tag (biotin-hGFRα3-mmH; SEQ ID:370) at 1 nM was pre-mixed with varied amounts of anti-GFRα3 antibodies, ranging from 0 to ˜100 nM in serial dilutions, followed by a 1 hour incubation at RT to allow antibody-biotin-hGFRα3-mmH binding to reach equilibrium. The equilibrated samples were then transferred to the coated plate. After 1 hour of binding, the plate was washed, then the bound biotin-hGFRα3-mmH was detected using HRP conjugated streptavidin (Pierce, #N200), and colorimetric signals were developed using TMB HRP substrates.

Row | Binder | % max blocking [%]
1 | B1 | 95
2 | B2 | 68
3 | B3 | 28
4 | B4 | 44
5 | B5 | 91

Target: T1, human GFRα3 expressed with a C-terminal …
Assay: SPR, Ab captured, 25C; 25° C.

Row | Binder | koff [s⁻¹]
6 | B6 | ≤ 1e-06
